Measurements reported in paper PMC5510750.

Biological target: IFN-λ3 H11 displayed on yeast
Experiment: flow cytometry on cells

Sequence of IL-10Rβ, monomeric soluble receptor (Q08334 20-220): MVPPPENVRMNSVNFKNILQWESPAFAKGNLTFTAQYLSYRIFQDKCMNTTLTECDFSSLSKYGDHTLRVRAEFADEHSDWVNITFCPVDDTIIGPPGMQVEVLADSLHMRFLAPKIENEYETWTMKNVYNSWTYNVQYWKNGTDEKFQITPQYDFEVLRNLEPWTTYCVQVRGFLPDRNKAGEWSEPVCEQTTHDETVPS

IL-10Rβ, monomeric soluble receptor (from UniProt Q08334 20-220)
Kd: 200 nM
